From US20190292229A1 (COMMISSARIAT A L ENERGIE ATOMIQUE ET AUX ENERGIES …, published 2019)

Biological target: T1, N1-525 with an Histidine tag (full length measles virus nucleoprotein, Edmonston strain) (measles virus (Edmonston strain), UniProt P0DXN6 1-525)
T1 construct: also called full length N
T1 sequence: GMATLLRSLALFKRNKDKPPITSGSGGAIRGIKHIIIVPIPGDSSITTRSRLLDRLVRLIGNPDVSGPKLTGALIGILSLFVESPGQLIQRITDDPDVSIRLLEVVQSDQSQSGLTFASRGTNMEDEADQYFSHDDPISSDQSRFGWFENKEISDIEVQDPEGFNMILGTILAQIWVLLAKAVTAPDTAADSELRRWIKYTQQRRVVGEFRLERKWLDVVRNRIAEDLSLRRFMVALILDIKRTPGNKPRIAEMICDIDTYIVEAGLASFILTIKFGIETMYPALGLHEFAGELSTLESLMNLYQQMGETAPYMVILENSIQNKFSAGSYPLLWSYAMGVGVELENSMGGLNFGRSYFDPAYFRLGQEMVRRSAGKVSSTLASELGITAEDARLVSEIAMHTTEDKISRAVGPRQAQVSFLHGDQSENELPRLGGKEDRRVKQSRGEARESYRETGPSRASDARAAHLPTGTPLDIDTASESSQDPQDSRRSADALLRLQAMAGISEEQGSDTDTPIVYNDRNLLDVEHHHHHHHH
Assay: co-expression, TEV cleavage, SAXS and SEC-MALLS

B1: P1-50 with a TEV peptide amino acid sequence (first 50 amino acids of measles virus phosphoprotein, Edmonston strain, after TEV cleavage) (peptide)
peptide: MAEEQARHVKNGLECIRALKAEPIGSLAIEEAMAAWSEISDNPGQERATCENLYFQN
notes: Produced as a P1-50-TEV site-N fusion in E. coli and cleaved with TEV; also called P1-50 peptide; minimal P peptide
Question: Does B1 bind?
Answer: binds
